The values below come from US20170088631A1 (Hoffmann-La Roche, published 2017).

Residue numbers refer to the chain shown, from its start. Names and notes keep the numbering of the source.

For experiment [1], the target named is T1, human Fibroblast Activation Protein (FAP), recombinant (human, UniProt Q12884 27-760).
T1 construct: they are treated as one molecule; also called Hu FAP; huFAP
The experiment is described as follows: SPR (ProteOn XPR36), GLM chip, huFAP as ligand by amine coupling (500 RU), construct as analyte, 1:1 global fit.

The target of experiment [2] is T1, human Fibroblast Activation Protein …. The experiment is described as follows: SPR (Biacore), His-tagged human FAP captured by anti-His antibody, antibody as analyte, 25 C; apparent bivalent affinity (avidity), 1:1 fit.
Experimental: The FAP binding activity of the IgG-IL-2 qm immunoconjugates based on 4G8 and 28H1 anti-FAP antibodies were determined by surface plasmon resonance (SPR) on a Biacore machine in comparison to the corresponding unmodified IgG antibodies. […] Temperature was 25° C. and HBS-EP was used as buffer. Analyte concentration was 50 nM down to 0.05 nM at a flow rate of 50 μl/min (association: 300 s, dissociation: 900 s, regeneration: 60 s with 10 mM glycine pH 2). Fitting was performed based on a 1:1 binding model, RI=0, Rmax=local (because of capture format).
Experiment [3] addresses T2, human A2 domain of Tenascin-C (TNC A2), recombinant (human, UniProt P24821 1167-1256, limits assumed, biotinylated via a C-terminal avi-tag (Example 5)).
T2 construct: domain: A2 domain of Tenascin-C; also called human TNC A2
T2 sequence (looked up): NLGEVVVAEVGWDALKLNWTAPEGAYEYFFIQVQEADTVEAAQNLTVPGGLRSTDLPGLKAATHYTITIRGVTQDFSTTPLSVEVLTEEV
The experiment in a line: SPR (ProteOn XPR36), NLC chip, biotinylated TNC A2 as ligand (250 RU), construct as analyte, 1:1 global fit; human TNC A2 as ligand.

T1 sequence (Q12884 27-760 limits assumed): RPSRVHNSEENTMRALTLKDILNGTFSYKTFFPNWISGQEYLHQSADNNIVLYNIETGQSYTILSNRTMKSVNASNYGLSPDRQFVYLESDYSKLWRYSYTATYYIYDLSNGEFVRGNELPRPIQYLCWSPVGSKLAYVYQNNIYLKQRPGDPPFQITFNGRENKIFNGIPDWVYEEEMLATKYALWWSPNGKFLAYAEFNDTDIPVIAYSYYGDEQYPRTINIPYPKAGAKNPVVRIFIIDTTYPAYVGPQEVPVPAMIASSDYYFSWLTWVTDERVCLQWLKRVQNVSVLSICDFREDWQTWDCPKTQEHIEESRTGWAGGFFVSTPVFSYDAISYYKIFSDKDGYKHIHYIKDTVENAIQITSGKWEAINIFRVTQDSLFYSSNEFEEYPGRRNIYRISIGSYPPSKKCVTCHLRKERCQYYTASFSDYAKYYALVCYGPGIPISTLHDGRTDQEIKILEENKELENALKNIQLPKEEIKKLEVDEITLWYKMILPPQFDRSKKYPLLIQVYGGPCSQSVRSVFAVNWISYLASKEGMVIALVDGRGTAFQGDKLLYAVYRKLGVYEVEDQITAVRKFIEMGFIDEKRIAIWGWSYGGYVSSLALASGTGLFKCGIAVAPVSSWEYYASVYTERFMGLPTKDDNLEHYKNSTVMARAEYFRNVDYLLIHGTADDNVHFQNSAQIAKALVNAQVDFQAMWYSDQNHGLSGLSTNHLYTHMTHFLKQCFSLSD

B1: FAP-targeted 4G8-based IgG-IL-10 immunoconjugate with monomeric IL-10 (IL-10M1) (other)
heavy 1: not shown
heavy 2: not shown
light: EVQLLESGGGLVQPGGSLRLSCAASGFTFSRYGMSWVRQAPGKGLEWVSAISGSGGSTYYADSVKGRFTISRDNSKNTLYLQMNSLRAEDTAVYYCAKAHNAFDYWGQGTLVTVSSASTKGPSVFPLAPSSKSTSGGTAALGCLVKDYFPEPVTVSWNSGALTSGVHTFPAVLQSSGLYSLSSVVTVPSSSLGTQTYICNVNHKPSNTKVDKKVEPKSCDSSSSGSSSSGSSSSGAPASSSTKKTQLQLEHLLLDLQMILNGINNYKNPKLTRMLTAKFAMPKKATELKHLQCLEEELKPLEEVLNGAQSKNFHLRPRDLISNINVIVLELKGSETTFMCEYADETATIVEFLNRWITFAQSIISTLTSGGGGSGGGGSGGGGEVQLLESGGGLVQPGGSLRLSCAASGFTFSRYGMSWVRQAPGKGLEWVSAISGSGGSTYYADSVKGRFTISRDNSKNTLYLQMNSLRAEDTAVYYCAKAHNAFDYWGQGTLVTVSSASTKGPSVFPLAPSSKSTSGGTAALGCLVKDYFPEPVTVSWNSGALTSGVHTFPAVLQSSGLYSLSSVVTVPSSSLGTQTYICNVNHKPSNTKVDKKVEPKSCD
notes: P329G LALA in the Fc; also called 4G8 IgG-IL-10M1; FAP 4G8 IgG-IL-10M1
The term koff denotes a measure of how fast the partners let go of each other. One may read the kon as a measure of how fast the partners come together. For B1, in experiment [1], the Kd is 0.026 nM, the koff amounted to 1.75e-05 s⁻¹ and the kon came out at 668000 M⁻¹ s⁻¹.

B2: 4G8 IgG (unmodified anti-FAP antibody) (antibody, V domains shown)
VH: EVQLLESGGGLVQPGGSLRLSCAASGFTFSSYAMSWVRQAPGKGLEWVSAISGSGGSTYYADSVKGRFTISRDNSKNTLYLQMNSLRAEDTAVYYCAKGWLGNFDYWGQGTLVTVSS
VL: EIVLTQSPGTLSLSPGERATLSCRASQSVSRSYLAWYQQKPGQAPRLLIIGASTRATGIPDRFSGSGSGTDFTLTISRLEPEDFAVYYCQQGQVIPPTFGQGTKVEIK
Consider B2, for which the Kd in experiment [2] stood at 0.05 nM.

B3: 28H1 IgG (unmodified anti-FAP antibody) (antibody, V domains shown)
VH: EVQLLESGGGLVQPGGSLRLSCAASGFTFSSHAMSWVRQAPGKGLEWVSAIWASGEQYYADSVKGRFTISRDNSKNTLYLQMNSLRAEDTAVYYCAKGWLGNFDYWGQGTLVTVSS
VL: B2 VL
notes: Corresponding unmodified IgG of the 28H1 immunoconjugate
B3: the Kd in experiment [2] is 0.2 nM.

B4: TNC A2-targeted 2B10-based IgG-IL-10 immunoconjugate with monomeric IL-10 (IL-10M1) (other)
heavy 1: EIVLTQSPGTLSLSPGERATLSCRASQSVSRSYLAWYQQKPGQAPRLLIIGASTRATGIPDRFSGSGSGTDFTLTISRLEPEDFAVYYCQQGQVIPPTFGQGTKVEIKRTVAAPSVFIFPPSDEQLKSGTASVVCLLNNFYPREAKVQWKVDNALQSGNSQESVTEQDSKDSTYSLSSTLTLSKADYEKHKVYACEVTHQGLSSPVTKSFNRGEC
heavy 2: B4 heavy 1 with R31S, I50Y, T54S, V94Y, I95T
light: B4 heavy 1 with R31S, S32N, I50Y, S53Y, T54I
notes: P329G LALA in the Fc; also called 2B10 IgG-IL-10M1; TNCA2 2B10 IgG-IL-10M1
Turning to B4, in experiment [3], the Kd is 0.052 nM, the koff was found to be 9.35e-05 s⁻¹ and the kon stood at 1.8e+06 M⁻¹ s⁻¹.
